According to US20250263466A1 (VIR BIOTECHNOLOGY, published 2025):
Residue numbers refer to the chain shown, from its start.

T1: MERS-CoV S protein (London1/2012) expressed on ExpiCHO cells (MERS-CoV, UniProt K9N5Q8 18-1353)
T1 sequence: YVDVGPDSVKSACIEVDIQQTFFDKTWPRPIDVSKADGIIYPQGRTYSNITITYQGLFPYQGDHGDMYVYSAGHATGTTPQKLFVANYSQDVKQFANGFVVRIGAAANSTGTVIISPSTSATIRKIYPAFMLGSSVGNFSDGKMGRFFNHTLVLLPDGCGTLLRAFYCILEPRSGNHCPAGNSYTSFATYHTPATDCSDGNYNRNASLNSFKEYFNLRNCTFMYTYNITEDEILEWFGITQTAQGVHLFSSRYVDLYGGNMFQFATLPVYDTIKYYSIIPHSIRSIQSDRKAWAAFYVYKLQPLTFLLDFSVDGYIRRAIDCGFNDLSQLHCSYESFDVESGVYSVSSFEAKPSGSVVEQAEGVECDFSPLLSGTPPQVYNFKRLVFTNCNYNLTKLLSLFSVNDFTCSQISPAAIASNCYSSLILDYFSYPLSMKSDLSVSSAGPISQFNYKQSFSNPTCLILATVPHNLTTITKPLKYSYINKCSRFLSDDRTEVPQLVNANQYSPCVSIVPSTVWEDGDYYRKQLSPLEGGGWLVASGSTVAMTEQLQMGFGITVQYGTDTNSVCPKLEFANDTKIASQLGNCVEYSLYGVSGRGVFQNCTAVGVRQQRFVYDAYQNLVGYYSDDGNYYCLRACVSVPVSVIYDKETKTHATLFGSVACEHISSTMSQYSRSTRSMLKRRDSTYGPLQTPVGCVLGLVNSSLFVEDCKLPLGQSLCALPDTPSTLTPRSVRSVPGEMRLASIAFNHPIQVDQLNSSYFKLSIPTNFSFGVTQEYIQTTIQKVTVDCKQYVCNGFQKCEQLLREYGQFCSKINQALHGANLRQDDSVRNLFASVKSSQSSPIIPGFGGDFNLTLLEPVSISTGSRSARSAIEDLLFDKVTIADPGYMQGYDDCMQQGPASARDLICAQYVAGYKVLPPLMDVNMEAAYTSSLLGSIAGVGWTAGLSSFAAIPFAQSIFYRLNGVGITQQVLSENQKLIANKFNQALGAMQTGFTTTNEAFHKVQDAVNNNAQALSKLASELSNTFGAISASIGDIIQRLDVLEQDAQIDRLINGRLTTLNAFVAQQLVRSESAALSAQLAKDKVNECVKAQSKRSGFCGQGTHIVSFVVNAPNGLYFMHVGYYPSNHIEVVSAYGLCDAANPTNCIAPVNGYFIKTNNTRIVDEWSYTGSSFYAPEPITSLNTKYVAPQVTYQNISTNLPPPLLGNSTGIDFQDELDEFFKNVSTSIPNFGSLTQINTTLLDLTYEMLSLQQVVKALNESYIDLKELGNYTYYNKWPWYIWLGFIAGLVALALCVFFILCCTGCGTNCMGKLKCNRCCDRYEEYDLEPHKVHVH

B1: nCoV-12 mAb (antibody, V domains shown)
VH: QVQLVESGGGVVQPGRSLRLSCAGSGFTFSSFGLHWVRQAPGKGLEWLALISDEGRIKYYANSVKGRFFISRDNSKNTLYLQMNSLRGEDTAVYYCARDVKGHIVVMTSLDYWGQGALVTVSS
VL: DVVMTQSPLSLPVTLGQPASISCRSSQSLVSSDGDTSLSWFQQRPGQSPRRLIYEVSNRDSGVPDRFSGSGSGTDFTLKISRVEAEDVGVYYCMQGTHWPPTFGQGTKVEIK
B2: nCoV-17 mAb (antibody, V domains shown)
VH: QVQLVESGGGVVQPGRSLRLSCAASGFTFSSYAIHWVRQAPGKGLEWLAVISFDGRHKYYADSVKGRFTISRDNSKNTVYLQMNSLRVEDTAVYSCARDIRHLIVVVSDMDVWGQGTTVTVSS
VL: B1 VL with S31N, S39N, E55K, F67I, V109L
B3: nCoV-11 mAb (antibody, V domains shown)
VH: LVQLVESGGGVVQPGRSLRLSCAGSGFTFSSYGMHWVRQTPGKGLEWVAVISFDGRNKFYADPVKGRFTISRDNSKNTVFLELDSLTTEDTAFYYCARDDNLDRHWPLRLGGYWGQGTLVTVSS
VL: EIVMTQSPLSLPVTLGQPASISCRSSQDLLYNDGGTDLNWFQQRPGQSPRRLIYRVSNRDSGVPDRFSGSGSGSDFTLKISRVEAEDVGIYYCMQGAHWPPTFGPGTKVEIK
B4: nCoV-14 mAb (antibody, V domains shown)
VH: QVQLVHSGAEVKKPGASVRVSCKASGYTYTAYYIHWLRQAPGQGLEWMGWINADNGDTHSVQKFQGRVTMTRDTSINTAYLEVSRLKSDDTAVYYCARGDVPVGTGWVFDFWGQGTLVTVSS
VL: DIQMTQSPSSLSASVGDSVTISCRASQTINNFLNWYQQKPGKAPNLLIYGAYNLQSGVPSRFSGSGSGTDFTLTISSLQPEDVAIYYCQQSLSMVTFGQGTRLDIK
B5: nCoV-7 mAb (antibody, V domains shown)
VH: QEQVVESGGGVVQPGKSLRLSCAASGFSLNDFAIHWVRQAPGKRLEWVAIISYDGRVKFYADSVKGRFTISRDSSVHLQMDSLRPEDTGLYYCARDSSWQSTGWPINWFDRWGRGTLVTVSS
VL: EIVLTQSPATLSLSPGQRATLSCRASQSVLSSLAWYQHKPGQAPRLLIYDASSRATGVPARFSGSGSETDFTLTISSLEPEDFAVYYCQQRSNWPPTFGQGTKVEIK
B6: nCoV-5 mAb (antibody, V domains shown)
VH: QMQLVQSGPEMKKPGTSVKVSCKASGFTFSKTTLQWVRQARGQRPEWIGWIVLGSGNTNYAHYFQARVTITRDMSTSTAYMELSSLSSEDTAVYYCAAEMATIQNYYYYYGMDVWGQGTTVTVSS
VL: DIQMTQSPSSLSASVGDRVTITCRASQSINYYLNWYQQKPGKAPNLLIYAASSLPGGVPSRFSGSGSGTDFTLTITSLQPEDFATYFCQQSYSTPPTFGQGTKLEIK
B7: nCoV-4 mAb (antibody, V domains shown)
VH: QVQLVESGGGVVQPGRSLRLSCEASGFTLRTSSLHWVRQAPGKGLEWVAVISNDGATKFYADAVKGRFTISRDNSNNKIYLQLNGLKPEDTAVYYCARETRHYSHGLNWFDPWGQGTLVNVSS
VL: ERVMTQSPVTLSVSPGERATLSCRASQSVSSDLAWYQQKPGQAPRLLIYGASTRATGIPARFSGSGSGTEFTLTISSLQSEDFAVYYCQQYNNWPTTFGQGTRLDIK
B8: nCoV-2 mAb (antibody, V domains shown)
VH: DVQLLESGGGLVQPGGSLRLSCAASGFSFSSYAMTWVRQAPGKGLEWVATMSASGDSTNDADSVKGRFTISRDNSKNTLFLQMNSLRPEDTAVYYCASPLRNYGDLLYWGQGTLVTVSS
VL: DIQMTQSPSTLSASVGDRVTITCRASQNIHRFLAWYQQKPGKAPKLLIYTASSLESGVPSRFSGSGFGTEFTLTISSLQPDDFATYYCQQYNSYSWTFGQGTKVEIK
B9: nCoV-3 mAb (antibody, V domains shown)
VH: EVQLLESGGGLVQPGGSLRLSCTASGFTFASYAMTWVRQAPGKGLEWVSTISGGGGDTYSADSVKGRFTISRDNSKSTLYLQMNSLRAADTALYYCARLESATQPLGYYFYGMDVWGQGTTVTVSS
VL: SYELTQPPSVSVSPGQTARITCSGDALPKQYAFWYQQRPGQAPVLVISKDSERPSGIPERFSGSSSGTTVTLTISGVQAEDEADYYCHSADISATSWVFGGGTKLTVV
B10: nCoV-15 mAb (antibody, V domains shown)
VH: EVQLVESGGGLVTPGRSLRLSCTASGFTFGDYALSWFRQAPGKGLEWVAFIRSKAYGGTTEYAASVKGRFTISRDDSQIIVYLQMDSLKTEDTAVYYCSWIHRIVSWGQGTLVTVSS
VL: DIQMTQSPSSLSASEGDRVTITCQASQDISIYLNWFQQKPGKAPKLLIYEASNLKTGVPSRFSGSGSGTDFTFTISSLQPEDIATYYCQQYDNLPYTFGQGTKLEIK
B11: nCoV-13 mAb (antibody, V domains shown)
VH: EVQLVESGGGLVKPGGSLRLSCAASGFTFSNYNMNWVRQAPGKGLEWVSSIGSSSTYIYSADSVKGRFTISRDNAMNSLFLQMKSLRAEDTAVYYCARGFERYYFDSWGQGTLVTVSS
VL: QSVLTQPPSASGTPGQRVTISCSGSTSNIGTNVVNWYQQLPGTAPKLLIYSNNQRPSWVPDRFSGSKSGTSASLAISGLQSEDEADYYCVAWDDILNAVVFAGGTKLTVL
B12: nCoV-6 mAb (antibody, V domains shown)
VH: QVTLKESGPVLVKPTETLTLTCTVSVFSLSNARMGVSWIRQPPGKALEWLAHIFSSDQKSYSTSLKSRLTISKDTSKSQVVLTMTNMDPEDTGTYYCARINTAAYDYDSTTFDIWGQGTMVTVSS
VL: DIQMTQSPSSLSASVGDRVTITCRASQTISNYLNWYQQKPGKAPKLLLYAASSLQSGVPSRFSGSGSGTDFTLTISSLQLEDFATYYCQQSYSTPPTFGGGTKVEIK
B13: nCoV-8 mAb (antibody, V domains shown)
VH: EVLLVESGGGLVQPGRSLRLSCVVSGFTFDYYAMHWVRQAPGKGLEWVSGISWNSDNTDYADSVKGRFTISRDNAKNSLYLQMNSLKTEDTALYYCAKDISLVFWSVNPPRNGMDVWGQGTTVTVSS
VL: B12 VL with T28S, S30R, N31S, K45N, L48I, A50T, L80P, T94S, P96L
B14: nCoV-9 mAb (antibody, V domains shown)
VH: QVLLVESGGGVVQPGMSLRLSCAASGFTFSSYAMHWVRQAPGKGLEWVAVISYDGSTKFYADSVRGRFPISRDNSKNTVYLQMNSLRPEDTAVYYCATVSVEGYTSGWYLGTLDFWGQGTPVTVSS
VL: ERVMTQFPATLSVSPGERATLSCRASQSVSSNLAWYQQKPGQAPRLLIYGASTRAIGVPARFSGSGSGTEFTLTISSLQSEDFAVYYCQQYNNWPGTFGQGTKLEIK
B15: nCoV-18 mAb (antibody, V domains shown)
VH: QVQLVQSGAEVRQPGTSVKVSCKASGYTFMNNDITWVRQAPGQVLQWMGWIRPSNGNTNYAQKFQGRVTLTTDTSTNTAHMELRSLKSDDTAVYYCARQSHSTRGGWHFSPWGQGTLVTVSS
VL: DIQMTQSPSSLSASVGDRVTITCRPSQPISYFLNWYQQTPGKAPKLLIYAASSLQSGVPSRFSGSGSGTDFTLTISSLQPEDSATYYCQQSYSVPYTFGQGTKLEIK
B16: nCoV-16 mAb (antibody, V domains shown)
VH: QVQLVESGGGVVQPGRSLRLSCAASGFTFSSYGMHWVRQAPGKGLEWVAFISYDGSNIQYADSVQGRFTISRDNSKTTLYLQMNSLRVEDTAMYYCAKDLFGYCRSTSCESLDDWGQGALVTVSS
VL: DIQLTQSPSFLSASVGDRVTITCRASQGISSYLAWYQQKPGKAPKLLIYAASTLQSGVPSRFSGTGYGTEFTLTISSLQPEDFATYYCQQLNNYPLTFGGGTKVEIK

Legend:
[1] = biological target: T1, MERS-CoV S protein (London1/2012) …; assay: flow cytometry on ExpiCHO cells transfected with MERS-CoV S
[2] = biological target: SARS-CoV S protein (Urbani strain) expressed on ExpiCHO cells (SARS-CoV, UniProt P59594 14-1255); assay: flow cytometry on ExpiCHO cells transfected with SARS-CoV S

Binder	binding result [1]	binding result [2]
B1	no binding (tested: 0.8 µg/ml)	binds
B2	no binding (tested: 10 µg/ml)	binds
B3	no binding (tested: 10 µg/ml)	binds
B4	no binding (tested: 10 µg/ml)	binds
B5	no binding (tested: 2 µg/ml)	binds
B6	no binding (tested: 1 µg/ml)	binds
B7	no binding (tested: 10 µg/ml)	–
B8	no binding (tested: 10 µg/ml)	binds
B9	no binding (tested: 10 µg/ml)	binds
B10	no binding (tested: 0.8 µg/ml)	binds
B11	no binding (tested: 7 µg/ml)	binds
B12	no binding (tested: 10 µg/ml)	binds
B13	no binding (tested: 1.5 µg/ml)	binds
B14	no binding (tested: 8.5 µg/ml)	binds
B15	no binding (tested: 10 µg/ml)	binds
B16	no binding (tested: 10 µg/ml)	binds
